The results in this text go back to the DeepSol protein solubility set.

The series in a line: soluble on expression in E. coli; label from the status in PepcDB or PDB records.
With “MFKIVYPNAKDFFSFINSITNVTDSIILNFTEDGIFSRHLTEDKVLMAIMRIPKDVLSEYSIDSPTSVKLDVSSVKKILSKASSKKATIELTETDSGLKIIIRDEKSGAKSTIYIKAEKGQVEQLTEPKVNLAVNFTTDESVLNVIAADVTLVGEEMRISTEEDKIKIEAGEEGKRYVAFLMKDKPLKELSIDTSASSSYSAEMFKDAVKGLRGFSAPTMVSFGENLPMKIDVEAVSGGHMIFWIAPRLLEHHHHHH”, the “soluble on expression in E. coli” value is given as “soluble”.

Consider “MGSDKIHHHHHHMRSPNFYTYAFLNTPDVPLRLPSGNLGQLLLINGNNISAVVEPGISLESSQNNDEEVIKMVLAHDRVICELSQQTTVLPLRFGTYFNSEETLLNHIESHAQEYQKKLDNIQGKTEYTLKLIPRKFEELAKISGGHGRDYFLAKKLHYEHQKSFIGDQNREKHHLINLMMDIYRSSAIIQDYVEEVRLHLLVDRHDKALLFKQVLTLQEKCPHWNLILGEPLPPYHFV”, for which the “soluble on expression in E. coli” value is listed as “not soluble”.

In the case of “MGSDKIHHHHHHMASIDFRNKINWHRRYRSPQGVKTEHEILRIFESDRGRIINSPAIRRLQQKTQVFPLERNAAVRTRLTHSMEVQQVGRYIAKEILSRLKEQDRLEEYGLDALTGPFESIVEMACLMHDIGNPPFGHFGEAAINDWFRQRLHPEDAESQPLTHDRCVVSSLRLQEGEENLNDIRRKVRQDICHFEGNAQGIRLVHTLMRMNLTWAQVGGILKYTRPAWWRGPVPDSHRYLMKKPGYYLSEEKYIARLRKELQLAPYSRFPLTWIMEAADDISYCVADLEDAVEKRIFSVEQLYHHLYHAWCHHEKDSLFELVVGNAWEKSRANTLSRSTEDQFFMYLRVNTLNKLVPYAAQRFIDNLPQIFAGTFNQALLEDASGFSRLLELYKNVAVEHVFSHPDVEQLELQGYRVISGLLDIYQPLLSLSLNDFRELVEKERLKRFPIESRLFQKLSTRHRLAYVEVVSKLPTDSAEYPVLEYYYRCRLIQDYISGMTDLYAWDEYRRLMAVEQ”, the “soluble on expression in E. coli” value is “not soluble”.

For the sequence “GPGSMMEATERRRKRERNERNDERRDDCEVLAKTDEKRTIVEELFQRLQSLDHTHMELEARLCRRAEVSDKSGSTSSEREWKGRRARKTRTEVMPGVAEEDYKRIEEFCLDKGKEGSVTRSTTRDVSFGQWRYTYTSGKPSECIACIRKERLFVLDVPVPSGAYDIRFSACTEITGELPSPNFAPTRGYTRHKDRLSVTDGLFRYDLTRVRDKHTTGYEVEVEFLLKDNDEKKITDSHVEELVGRALSLATLTASEG”, the “soluble on expression in E. coli” value is “soluble”.

For “MSDVLITLSVELEDRPGQLLKVLQPISGMGGNIVGIVHQRGKKTPLNRLPVEISFKMDSEKVQKLIDELKSLGIIIRSFNEVRLTATTSVLLIGHLIHTDISDTISSIDVDGEAECVEMHVSMPEISGPSTAIITISASGKEKLKEAVEKLKEVCRKKEIILIEPVNEELV”, the “soluble on expression in E. coli” value is reported as “not soluble”.

Consider “MSLKVGERHYHTIWLNEDGRSVDIIDQRWLPHEFRVVTLKTVADVADAIRDMWVRGAPLIGVTAAYGVAIAMAKDPSDAHLDAVWEELNETRPTAINLRWALNAMREYLRPLPEAERADAAYKRAAEIAEEDVELNRAIGANGLDVIREIASKKKPGEPVRILTHCNAGWLATVDYGTATAPIYMAVEEGIPVHVYVDETRPRNQGAYLTAWEMNGHGVPHTLIVDNAGGHLMQHGDIDMVIVGTDRTTANGDVCNKIGTYLKALAARDNDVPFYVALPSPTIDWTVQDGVKEIPIEERTADEVSFVQGRAADGSIASVRISPEGSPAANPAFDVTPARLITGLITERGIATPSPEGLKALFPERSEGHHHHHH”, for which the “soluble on expression in E. coli” value was “soluble”.

For the sequence “MISIPVAQQQKLPRLVLPRVYGFPPNRETLGGTAYLIVENDGNTLIDSPPWTDGSQHWLREQGGVKRLILTHRGAIARVRAIQDTFDCEVMIHAQEAYLLPQVTVTPFNHHLAIGETLEILWTPGHSPGSACVYWSCQGGVLFTGRHLLPTPTGELAPIKTATTFHWPRQLRSVEALKAFCRQKSLSYLCPGANMGFLRGTLAIANAQAVLQGLSVDNLLCDKFLEHHHHHH”, the “soluble on expression in E. coli” value was “not soluble”.

Take “MGSDKIHHHHHHMTVHDRIVAEPFSLQRRNPAGGTKPLTSWGFANETDVLTDVLLGSPNFLRHLSTSSLSRKHLREAPCNVQIAQAQHKDLVAAYEHFGVNIHWHEPTPELPMQVYSRDSSVMTPYGAIITAMANWWRRGENYAAIRTYEKLGIPIYDMVTAGTFEGGDFNVIEDGVVLIGCGGARTQEEGARQVQAWFEKEGWETRIAFIDEYYVHIDLMVVPIAEKLTAVCLACTEPGIVDWLKGKGHEIIDVPFQDTMALGCNFMSLGKDRVIAPTSSQTLIGQLKARGFEVAAVDMSEISKTGGGIHCMAQALKREAA”: the “soluble on expression in E. coli” value is listed as “not soluble”.

As to “MGSDKIHHHHHHKDLLGREVEIPSNVNRIVAVGPGALRLIAYLKATDMVVGVEDFEKLRPYGRPYILAYPELKKLPSVGPGGPGKLPDLESLITLQPDVVFITYVDRKTAKDIQEKTGIPVVVLSYGNLGTFEDEDLFRSIELAGKILGREERAHEVVDFIRKAQEDLVTRSEGVESPTVYVGGIGYKGAHGIDSTEAKYPPFVVLHARNVVDELGEGHKFIDPEKLLVWNPEYIFIDENGLSLVLDDYSKHREFYESLSAVKRGKVYGILPYNYYTTNIGTALADAYFIGKVLYPERFTDIDPEEKADEIYEFLLGKRVYGEMAEQFGGFGKIDLPSGRILRGTW”, the “soluble on expression in E. coli” value is given as “not soluble”.

Turning to “MSLQPNTYFLHNILVTGATGFVGSFLCSRLLAEGMSVRGTFLVTENPDSLVKGTEQALIEPIGPATFWGHALAGAGTVIHLAARVHVMRERAADPLKEFRFVNTEGTAHLAREAAKAGVKRFVFMGTIGVNGDNSGDAPYIESSPPYPHNPYSVSKYEAEQLLRQISSETGMEVVIIRAPLVYGPGNPGNFLSLLKAVNGDYGFKTLNFGLKVLPLPLASINNKRSLIYVGNLVDALVTCATHPAAVGQTYLVSDGEDVSTPELIRRTAAALGVPARLFPFPVPLMKLAGKLIDKSAAVNRLTGSLTVDSSKIRRELGWQPPFTMEEGLQETAKWFEKQGEGHHHHHH”, the “soluble on expression in E. coli” value is given as “soluble”.

As to “MHLYYLGPKGTFSYLAAKQFESHEQYDFIPLSNLHEVIQSVSKDKQAVGIVPIENSIEGTINIVADSLAHHDVYAHGEIQLDIDFSLYGHHSNSLDDIHKVYSIAPAISQTINYIHRQQFDYDYVDSTIQSLNMIKDGIGAIAPLGSGETYGYHTLDQHIQDYPHNVTRFLVVKNHTHFIEHPNTTIFLITPKYDKPGLLASVLNTFTLFNINLSWIESRPLKTQLGMYHFYVQADTAINNDVNKIISILETLDFQVKIIGAFNKKN”, the “soluble on expression in E. coli” value was “not soluble”.

“MHILVTGAAGFIGSHTVLELLNSGYTVLCIDNFANAISDEHGNAISLKRVAQLTGKDVPFQNVDVCDEAALEKVFSENKFDGIIHLAALKAVGESVAKPLQYYSNNLVASLNLIQMCLKYNVKNFVFSSSATVYGPPSELPITEKSQTGQGITNPYGQTKYMMEQILIDVGKANPEWNVVLLRYFNPVGAHKSGLIGEDPKGVPNNLMPYVSQVAIGKLPVLTIYGDQFDTVDGTGVRDYIHVVDLAKGHVKAFDRIKTVGNIGTEIYNLGTGVGYSVRQMVDALKKVSGRDIPVKIGVPRPGDVASVYCDPSLAQEKLGWRAETGLEEMCADLWNWQTKNPQGFSA”: the “soluble on expression in E. coli” value is given as “not soluble”.

Turning to “MVYRKVTISTKVFENTNAIVAWVSGRPVLLSKYEGKYYAMDAVCGHMGCAILDKVEGKEAVCPAHRARYDVTTGKKTADAVIRPEVKCEYNEASDTLKVYPVRENNGFLEVDMP”, the “soluble on expression in E. coli” value is “not soluble”.

With “MADLFNKHLKKATNRTKEKLLEGIGKAKATQDEVFDQHAANLNKQSKSCEKLHKDVKNYSSALRTLLSAEKQLRDTIRDAYEPEWPDREHLTAIFDNLDIQTNELEKTVCDDLPQTVTQYVNQFPDLKKKIEKRGRKLVDYDSAKNSFNSVKASSKKDNDPKLAKATMELQAAEQMYTEMNNELLEILPAVFDSRITFFVDTLQTLFNANSVYQTDASKFHKQIVMQLDKLGESMDYLRVARPEARALTPIDTTSLASSDAPATPDQNKSDNSSLRQTPSPSVLPSPVPAPMAKPRESVVSMANSTNPFDDDDAEHDKEATPTDVEEKFEAKVYPKLNAQQTAAAEQAIAAAKREKKEASNPFDDEDDESTEVEEAPKKKDPEPTPKPLDGITNEKRKTLYFVTSTHNYKAVDTDELSFEQGVQIKVIEANEDDQLDDGWRLGELEDGKRGVFPENFTKKV”, the “soluble on expression in E. coli” value is recorded as “not soluble”.

Consider “MNFHFTLDNDRKRRRSLSIDIDINFNDKAPGTSSDNEQRAPKRRADEEAVNAVPKNLLTTSSTFARAVIPAAPAISSANNKMAPQSVTATAKTTTNRGKVSGEGEYQLIKNEVLCSPYGNQYEVLEFLGKGTFGQVVKAWKKGTSEIVAIKILKKHPSYARQGQIEVSILSRLSNENSEEFNFVRAFECFNHKSHTCLVFEMLEQNLYDFLKQNKFMPLPLNAIRPILFQVLTALLKLKSLGLIHADLKPENIMLVDPQQQPYRVKVIDFGSASHRSKAVTNTYLQSRYYRAPEIILGLPFNESIDMWSLGCVIAELFLGWPLYPGSSEYDQIRFIIQTQGLPPTSMLESASKLHRFFKEVKSESPNHTNVGGSYYRLKTVEEYEASSSTAKSKETRKYIFNVIDDISRVCYGFESDPVEHLCDRIDRQEFVDVLKKMLVLNPDFRITPAEGLESKFVTMTHINGYNFANYVHEAHKRMEICRKPGPAMATPYRAANVATPITPVEKPPAPKLQQPMIAVLPQLNQIAATNIPPVPTQPDLTNLMHHYSQMAAATGSAATAAQFFYQPLPPAPLFQYAQLHHPFAARPPHFLSLATPSHMVPQFVPVPIMDPSMLQGQWPPGAAQQFAVLANDIMRVPAPQGINQMFASTPQTFSLPQFLSSSIPSATTAFNGNAPNIPFPEENSSWALGTAAQQQQQQAQRAQSMINGNVKVKPLAAQPKKNSPAPSVITLSSDEDSNGAGSSNSGSTTRTGAVNPVRNDTLPMGNTIKTEDILVPPTTFDGQLPNLQYFPGSHLFDPKTVAGLLPNPFLDTSHIPRAFN”, for which the “soluble on expression in E. coli” value is given as “not soluble”.

On to “DIVLTQSPTTMAASPGEKITITCSASSSISSNYLHWYQQKPGFSPKLLIYRTSNLASGVPARFSGSGSGTSYSLTIGTMEAEDVATYYCQQGSSIPLTFGAGTKLELKRADAAPTVSIFPPSSEQLTSGGASVVCFLNNFYPKDINVKWKIDGSERQNGVLNSWTDQDSKDSTYSMSSTLTLTKDEYERHNSYTCEATHKTSTSPIVKSFNRNEC”, for which the “soluble on expression in E. coli” value is reported as “soluble”.

As to “VKKIGILVLITALLAGIIPKSALAEEPKFNYVDAFAKSILFYEANWCGPDAGNNRIKWRGPCHIEDGKDVGLDLTGGFHDCGDHVKFGLPQCASASTLAWAYHEFSDVFIEKGQDEYMLNILKHFCDYFMKCYPEKNKFYYQVGDGDVDHQYWGPPELQSYDRPTYYVATPENPGSDVAGDTAAALALMYLNYKDRDLEYAEKCLAYAKDIYEFGMTYRGNSKGQSYYLPRDYLDELMWGSLWLYVATGEQKYMDNLEKLMVEKRIGDEAGNSFNDNWTQCWDYVLTGVFIKLATLTDKPLYKQIAEDHLDYWQNRIKSTPGGLKYLDSWGVCKYPAAESMVQLVYYKYTGDKRCLDFAKSQIDYILGDNPKKMSYVVGFGDNYPKFPHHRAASGRLEGPPADETKNDPQRHILYGALVGGADINDEYYDDIDKYVYSETGLDYNAGLVGALAGMSKYFGQGQMPEDTPGIEGEPPVYYADAKIYEENESGITVDLNMYNIVTSPPQYESDLSCRYFVDLSEYAGENIDMSKFVTKVYYSPAGATISELKPYDKEKNIYYVEISFPNPVYARTYVQFCIYYYENKLWDSSNDFSYQGIGDTYKTLENIPIYKNGVLVAGKEPSGAGPVEPTPPPKNYVYGDVNGDGKVNSTDCSIVKRYLLKNIEDFPYEYGKEAGDVNGDGKVNSTDYSLLKRFVLRNIDKFPVEQ”, the “soluble on expression in E. coli” value is “not soluble”.
